Test results reported in the Human Domainome abundance scans (Beltran et al. 2025).
± gives the uncertainty stated by the source.

B1: Zinc finger homeobox protein 3, residues 2643 to 2698; numbered along this chain, Q15911 (parent)
chain: RLRTTITPEQLEILYQKYLLDSNPTRKMLDHIAHEVGLKKRVVQVWFQNTRARERK

Variants of: B1
Assay: abundance fitness (aPCA) (normalised: wild type 0, dead -1); higher = more abundant; growth selection in yeast, the domain comes from the species named
Details: Homo sapiens

Variant	abundance fitness
RLRTTITPEQLEILYQKYLLDSNPTRKMLDHIAHAVGLKKRVVQVWFQNTRARERK [E35A]	-0.127 ± 0.091
RLRTTITPEQLEILYQKYLLDSNPTRKMLDHIAHCVGLKKRVVQVWFQNTRARERK [E35C]	-0.351 ± 0.12
RLRTTITPEQLEILYQKYLLDSNPTRKMLDHIAHFVGLKKRVVQVWFQNTRARERK [E35F]	-0.557 ± 0.15
RLRTTITPEQLEILYQKYLLDSNPTRKMLDHIAHGVGLKKRVVQVWFQNTRARERK [E35G]	-0.487 ± 0.092
RLRTTITPEQLEILYQKYLLDSNPTRKMLDHIAHHVGLKKRVVQVWFQNTRARERK [E35H]	-0.274 ± 0.13
RLRTTITPEQLEILYQKYLLDSNPTRKMLDHIAHIVGLKKRVVQVWFQNTRARERK [E35I]	-0.029 ± 0.14
RLRTTITPEQLEILYQKYLLDSNPTRKMLDHIAHKVGLKKRVVQVWFQNTRARERK [E35K]	-0.356 ± 0.15
RLRTTITPEQLEILYQKYLLDSNPTRKMLDHIAHLVGLKKRVVQVWFQNTRARERK [E35L]	-0.205 ± 0.079
RLRTTITPEQLEILYQKYLLDSNPTRKMLDHIAHMVGLKKRVVQVWFQNTRARERK [E35M]	-0.417 ± 0.11
RLRTTITPEQLEILYQKYLLDSNPTRKMLDHIAHNVGLKKRVVQVWFQNTRARERK [E35N]	-1.01 ± 0.28
RLRTTITPEQLEILYQKYLLDSNPTRKMLDHIAHQVGLKKRVVQVWFQNTRARERK [E35Q]	-0.016 ± 0.1
RLRTTITPEQLEILYQKYLLDSNPTRKMLDHIAHSVGLKKRVVQVWFQNTRARERK [E35S]	-0.224 ± 0.083
RLRTTITPEQLEILYQKYLLDSNPTRKMLDHIAHTVGLKKRVVQVWFQNTRARERK [E35T]	0.063 ± 0.092
RLRTTITPEQLEILYQKYLLDSNPTRKMLDHIAHVVGLKKRVVQVWFQNTRARERK [E35V]	-0.255 ± 0.092
RLRTTITPEQLEILYQKYLLDSNPTRKMLDHIAHWVGLKKRVVQVWFQNTRARERK [E35W]	-0.509 ± 0.11
RLRTTITPEQLEILYQKYLLDSNPTRKMLDHIAHYVGLKKRVVQVWFQNTRARERK [E35Y]	-0.556 ± 0.14
RLRTTITPEQLEILYQKYLLDSNPTRKMLDHIAHEAGLKKRVVQVWFQNTRARERK [V36A]	-0.114 ± 0.09
RLRTTITPEQLEILYQKYLLDSNPTRKMLDHIAHEDGLKKRVVQVWFQNTRARERK [V36D]	-0.853 ± 0.2
RLRTTITPEQLEILYQKYLLDSNPTRKMLDHIAHEEGLKKRVVQVWFQNTRARERK [V36E]	-1.11 ± 0.26
RLRTTITPEQLEILYQKYLLDSNPTRKMLDHIAHEFGLKKRVVQVWFQNTRARERK [V36F]	-0.568 ± 0.15
RLRTTITPEQLEILYQKYLLDSNPTRKMLDHIAHEGGLKKRVVQVWFQNTRARERK [V36G]	-0.732 ± 0.1
RLRTTITPEQLEILYQKYLLDSNPTRKMLDHIAHEHGLKKRVVQVWFQNTRARERK [V36H]	-0.964 ± 0.2
RLRTTITPEQLEILYQKYLLDSNPTRKMLDHIAHEIGLKKRVVQVWFQNTRARERK [V36I]	0.191 ± 0.12
RLRTTITPEQLEILYQKYLLDSNPTRKMLDHIAHEKGLKKRVVQVWFQNTRARERK [V36K]	-0.985 ± 0.35

Variant	abundance fitness
RLRTTITPEQLEILYQKYLLDSNPTRKMLDHIAHELGLKKRVVQVWFQNTRARERK [V36L]	-0.145 ± 0.094
RLRTTITPEQLEILYQKYLLDSNPTRKMLDHIAHEMGLKKRVVQVWFQNTRARERK [V36M]	-0.427 ± 0.18
RLRTTITPEQLEILYQKYLLDSNPTRKMLDHIAHENGLKKRVVQVWFQNTRARERK [V36N]	-0.761 ± 0.25
RLRTTITPEQLEILYQKYLLDSNPTRKMLDHIAHEPGLKKRVVQVWFQNTRARERK [V36P]	-1 ± 0.19
RLRTTITPEQLEILYQKYLLDSNPTRKMLDHIAHERGLKKRVVQVWFQNTRARERK [V36R]	-0.82 ± 0.11
RLRTTITPEQLEILYQKYLLDSNPTRKMLDHIAHESGLKKRVVQVWFQNTRARERK [V36S]	-0.134 ± 0.094
RLRTTITPEQLEILYQKYLLDSNPTRKMLDHIAHETGLKKRVVQVWFQNTRARERK [V36T]	0.053 ± 0.12
RLRTTITPEQLEILYQKYLLDSNPTRKMLDHIAHEWGLKKRVVQVWFQNTRARERK [V36W]	-0.495 ± 0.14
RLRTTITPEQLEILYQKYLLDSNPTRKMLDHIAHEYGLKKRVVQVWFQNTRARERK [V36Y]	-0.896 ± 0.19
RLRTTITPEQLEILYQKYLLDSNPTRKMLDHIAHEVALKKRVVQVWFQNTRARERK [G37A]	-0.366 ± 0.084
RLRTTITPEQLEILYQKYLLDSNPTRKMLDHIAHEVCLKKRVVQVWFQNTRARERK [G37C]	-0.297 ± 0.087
RLRTTITPEQLEILYQKYLLDSNPTRKMLDHIAHEVDLKKRVVQVWFQNTRARERK [G37D]	-0.384 ± 0.1
RLRTTITPEQLEILYQKYLLDSNPTRKMLDHIAHEVFLKKRVVQVWFQNTRARERK [G37F]	-0.55 ± 0.15
RLRTTITPEQLEILYQKYLLDSNPTRKMLDHIAHEVHLKKRVVQVWFQNTRARERK [G37H]	-0.404 ± 0.16
RLRTTITPEQLEILYQKYLLDSNPTRKMLDHIAHEVILKKRVVQVWFQNTRARERK [G37I]	-0.891 ± 0.17
RLRTTITPEQLEILYQKYLLDSNPTRKMLDHIAHEVKLKKRVVQVWFQNTRARERK [G37K]	-0.007 ± 0.12
RLRTTITPEQLEILYQKYLLDSNPTRKMLDHIAHEVMLKKRVVQVWFQNTRARERK [G37M]	-0.53 ± 0.12
RLRTTITPEQLEILYQKYLLDSNPTRKMLDHIAHEVNLKKRVVQVWFQNTRARERK [G37N]	-0.306 ± 0.13
RLRTTITPEQLEILYQKYLLDSNPTRKMLDHIAHEVPLKKRVVQVWFQNTRARERK [G37P]	-0.637 ± 0.13
RLRTTITPEQLEILYQKYLLDSNPTRKMLDHIAHEVQLKKRVVQVWFQNTRARERK [G37Q]	-0.147 ± 0.1
RLRTTITPEQLEILYQKYLLDSNPTRKMLDHIAHEVRLKKRVVQVWFQNTRARERK [G37R]	-0.27 ± 0.071
RLRTTITPEQLEILYQKYLLDSNPTRKMLDHIAHEVTLKKRVVQVWFQNTRARERK [G37T]	-0.825 ± 0.13
RLRTTITPEQLEILYQKYLLDSNPTRKMLDHIAHEVVLKKRVVQVWFQNTRARERK [G37V]	-0.812 ± 0.09
